In publication PMC10849593 (Science Advances, 2024):

Columns and labels:
[1] = target: T1, MutSβ WT, MSH3 subunit;MutSβ, MSH2 subunit (human;human?, UniProt P20585;P43246 1-1137;1-934, |); assay: EMSA
[2] = target: T1, MutSβ WT, MSH3 subunit;MutSβ, MSH2 …; assay: pull-down
[3] = target: MutLβ (MLH1-PMS1 heterodimer) carrying a 6xHis tag on the PMS1 subunit (human, UniProt P40692;P54277); assay: pull-down

AGGGGGGAGGGAGGGTGG (structured_DNA) [CEB1 G4]: binds [1].

B1: b66-G4 (structured_DNA)
DNA: TTTTTTTTTTTTTTTTTTTTTTTTTTTTTTTTTTTTTTTTTTTTTGGGTGGGTGGGTGGGTTTTTT
B1: binds [2].

B2: Flag-tagged FANCJ (enzyme)
chain: MSSMWSEYTIGGVKIYFPYKAYPSQLAMMNSILRGLNSKQHCLLESPTGSGKSLALLCSALAWQQSLSGKPADEGVSEKAEVQLSCCCACHSKDFTNNDMNQGTSRHFNYPSTPPSERNGTSSTCQDSPEKTTLAAKLSAKKQASIYRDENDDFQVEKKRIRPLETTQQIRKRHCFGTEVHNLDAKVDSGKTVKLNSPLEKINSFSPQKPPGHCSRCCCSTKQGNSQESSNTIKKDHTGKSKIPKIYFGTRTHKQIAQITRELRRTAYSGVPMTILSSRDHTCVHPEVVGNFNRNEKCMELLDGKNGKSCYFYHGVHKISDQHTLQTFQGMCKAWDIEELVSLGKKLKACPYYTARELIQDADIIFCPYNYLLDAQIRESMDLNLKEQVVILDEAHNIEDCARESASYSVTEVQLRFARDELDSMVNNNIRKKDHEPLRAVCCSLINWLEANAEYLVERDYESACKIWSGNEMLLTLHKMGITTATFPILQGHFSAVLQKEEKISPIYGKEEAREVPVISASTQIMLKGLFMVLDYLFRQNSRFADDYKIAIQQTYSWTNQIDISDKNGLLVLPKNKKRSRQKTAVHVLNFWCLNPAVAFSDINGKVQTIVLTSGTLSPMKSFSSELGVTFTIQLEANHIIKNSQVWVGTIGSGPKGRNLCATFQNTETFEFQDEVGALLLSVCQTVSQGILCFLPSYKLLEKLKERWLSTGLWHNLELVKTVIVEPQGGEKTNFDELLQVYYDAIKYKGEKDGALLVAVCRGKVSEGLDFSDDNARAVITIGIPFPNVKDLQVELKRQYNDHHSKLRGLLPGRQWYEIQAYRALNQALGRCIRHRNDWGALILVDDRFRNNPSRYISGLSKWVRQQIQHHSTFESALESLAEFSKKHQKVLNVSIKDRTNIQDNESTLEVTSLKYSTSPYLLEAASHLSPENFVEDEAKICVQELQCPKIITKNSPLPSSIISRKEKNDPVFLEEAGKAEKIVISRSTSPTFNKQTKRVSWSSFNSLGQYFTGKIPKATPELGSSENSASSPPRFKTEKMESKTVLPFTDKCESSNLTVNTSFGSCPQSETIISSLKIDATLTRKNHSEHPLCSEEALDPDIELSLVSEEDKQSTSNRDFETEAEDESIYFTPELYDPEDTDEEKNDLAETDRGNRLANNSDCILAKDLFEIRTIKEVDSAREVKAEDCIDTKLNGILHIEESKIDDIDGNVKTTWINELELGKTHEIEIKNFKPSPSKNKGMFPGFK
B2: binds [3].
